We go through one substance from US20080274480A1.

In this assay the target is BoNT/A receptor on mouse brain synaptosomes (mouse).

As for “active BoNT/A toxin (Metabiologics, Inc.), unlabeled (from UniProt P0DPI1 2-1296)”, the percent inhibition at 2.0 µg is 78%.
